Here are results for one molecule from patent publication US9029097 (UNIVERSITE DE MONTREAL, dated 2015).

The assay deals with T1, β2AR-GFP10 (human, UniProt P07550 1-413).
T1 construct: whole, on cells; Expressed in HEK293T cells; also called GFP tagged-β2 adrenergic receptor; not shown: GFP10, variant of GFP
As to the kind of experiment: BRET2 kinetics, living cells, 10 µM Iso up to 4 min. A general note: In BRET a luciferase serves as donor, and the signal depends on an acceptor being close.

B1: QL-Gαi1-122Rluc (other)
chain: MGCTLSAEDKAAVERSKMIDRNLREDGEKAAREVKLLLLGAGESGKSTIVKQMKIIHEAGYSEEECKQYKAVVYSNTIQSIIAIIRAMGRLKIDFGDSARADDARQLFVLAGAAEEGFMTAESGGGGSMTSKVYDPEQRKRMITGPQWWARCKQMNVLDSFINYYDSEKHAENAVIFLHGNAASSYLWRHVVPHIEPVARCIIPDLIGMGKSGKSGNGSYRLLDHYKYLTAWFELLNLPKKIIFVGHDWGACLAFHYSYEHQDKIKAIVHAESVVDVIESWDEWPDIEEDIALIKSEEGEKMVLENNFFVETMLPSKIMRKLEPEEFAAYLEPFKEKGEVRRPTLSWPREIPLVKGGKPDVVQIVRNYNAYLRASDDLPKMFIESDPGFFSNAIVEGAKKFPNTEFVKVKGLHFSQEDAPDEMGKYIKSFVERVLKNEQSGGGGSLAGVIKRLWKDSGVQACFNRSREYQLNDSAAYYLNDLDRIAQPNYIPTQQDVLRTRVKTTGIVETHFTFKDLHFKMFDVGGLRSERKKWIHCFEGVTAIIFCVALSDYDLVLAEDEEMNRMHESMKLFDSICNNKWFTDTSIILFLNKKDLFEEKIKKSPLTICYPEYAGSNTYEEAAAYIQCQFEDLNKRKDTKEIYTHFTCATDTKNVQFVFDAVTDVIIKNNLKDCGLF
notes: unable to hydrolyse GTP; also called Rluc-tagged constitutively active Q204L-Gαi1 mutant
As for B1, the binding result is on record as “binds”.
